Target: T1, aryl hydrocarbon receptor (human (endogenous in HL-60), UniProt P35869 11-848)
T1 sequence (looked up): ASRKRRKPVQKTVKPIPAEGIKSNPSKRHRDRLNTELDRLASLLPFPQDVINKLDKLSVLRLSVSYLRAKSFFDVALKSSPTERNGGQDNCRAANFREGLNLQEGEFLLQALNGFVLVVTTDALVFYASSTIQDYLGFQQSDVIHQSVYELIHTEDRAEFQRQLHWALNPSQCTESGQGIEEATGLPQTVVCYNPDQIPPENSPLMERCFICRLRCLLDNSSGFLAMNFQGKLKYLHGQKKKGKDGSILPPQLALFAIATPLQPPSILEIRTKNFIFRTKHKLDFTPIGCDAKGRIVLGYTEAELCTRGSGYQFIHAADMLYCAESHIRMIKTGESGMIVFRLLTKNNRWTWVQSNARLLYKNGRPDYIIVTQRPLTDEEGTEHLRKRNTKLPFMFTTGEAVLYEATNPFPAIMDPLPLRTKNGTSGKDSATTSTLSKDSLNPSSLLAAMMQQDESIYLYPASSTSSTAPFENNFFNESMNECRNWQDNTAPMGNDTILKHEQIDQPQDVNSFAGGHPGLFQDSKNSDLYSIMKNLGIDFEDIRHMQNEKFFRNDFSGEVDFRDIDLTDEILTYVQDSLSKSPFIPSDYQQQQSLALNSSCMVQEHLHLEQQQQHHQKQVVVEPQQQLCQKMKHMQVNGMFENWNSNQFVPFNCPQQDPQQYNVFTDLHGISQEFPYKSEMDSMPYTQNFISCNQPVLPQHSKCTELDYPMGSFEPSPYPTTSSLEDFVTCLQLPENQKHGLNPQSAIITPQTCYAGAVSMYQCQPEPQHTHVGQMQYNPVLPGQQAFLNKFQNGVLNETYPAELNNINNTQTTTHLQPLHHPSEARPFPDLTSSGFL
Assay: FRET or BRET

B1: Cbl-b (natural protein, human (endogenous in HL-60), UniProt Q13191 1-982, looked up)
chain: MANSMNGRNPGGRGGNPRKGRILGIIDAIQDAVGPPKQAAADRRTVEKTWKLMDKVVRLCQNPKLQLKNSPPYILDILPDTYQHLRLILSKYDDNQKLAQLSENEYFKIYIDSLMKKSKRAIRLFKEGKERMYEEQSQDRRNLTKLSLIFSHMLAEIKAIFPNGQFQGDNFRITKADAAEFWRKFFGDKTIVPWKVFRQCLHEVHQISSGLEAMALKSTIDLTCNDYISVFEFDIFTRLFQPWGSILRNWNFLAVTHPGYMAFLTYDEVKARLQKYSTKPGSYIFRLSCTRLGQWAIGYVTGDGNILQTIPHNKPLFQALIDGSREGFYLYPDGRSYNPDLTGLCEPTPHDHIKVTQEQYELYCEMGSTFQLCKICAENDKDVKIEPCGHLMCTSCLTAWQESDGQGCPFCRCEIKGTEPIIVDPFDPRDEGSRCCSIIDPFGMPMLDLDDDDDREESLMMNRLANVRKCTDRQNSPVTSPGSSPLAQRRKPQPDPLQIPHLSLPPVPPRLDLIQKGIVRSPCGSPTGSPKSSPCMVRKQDKPLPAPPPPLRDPPPPPPERPPPIPPDNRLSRHIHHVESVPSRDPPMPLEAWCPRDVFGTNQLVGCRLLGEGSPKPGITASSNVNGRHSRVGSDPVLMRKHRRHDLPLEGAKVFSNGHLGSEEYDVPPRLSPPPPVTTLLPSIKCTGPLANSLSEKTRDPVEEDDDEYKIPSSHPVSLNSQPSHCHNVKPPVRSCDNGHCMLNGTHGPSSEKKSNIPDLSIYLKGDVFDSASDPVPLPPARPPTRDNPKHGSSLNRTPSDYDLLIPPLGEDAFDALPPSLPPPPPPARHSLIEHSKPPGSSSRPSSGQDLFLLPSDPFVDLASGQVPLPPARRLPGENVKTNRTSQDYDQLPSCSDGSQAPARPPKPRPRRTAPEIHHRKPHGPEAALENVDAKIAKLMGEGYAFEEVKRALEIAQNNVEVARSILREFAFPPPVSPRLNL
  fold weaker FRET signal than the RARα/RXRα interaction: ~4 fold

From publication PMC6586535 (Leukemia & lymphoma, 2018)
